Biological target: Flag-β2AR (UniProt P07550)
Test: cell-based or functional assay

Substance: β-arrestin2 (from UniProt P29067 1-410)
- β2AR degradation after 24 hrs of isoproterenol treatment (125I CYP binding on whole HEK 293 cells; mock about 25%): 6 to 7%

From US20060263828A1
